These results are taken from patent US20180215825A1 (BEIGENE, published 2018).

Where a chain is given by its changes, count along the chain named.

Assay [1] addresses T1, human FcγRIIB expressed on HEK293 cells (human, UniProt P31994 43-310).
T1 construct: whole, on cells
T1 sequence (looked up): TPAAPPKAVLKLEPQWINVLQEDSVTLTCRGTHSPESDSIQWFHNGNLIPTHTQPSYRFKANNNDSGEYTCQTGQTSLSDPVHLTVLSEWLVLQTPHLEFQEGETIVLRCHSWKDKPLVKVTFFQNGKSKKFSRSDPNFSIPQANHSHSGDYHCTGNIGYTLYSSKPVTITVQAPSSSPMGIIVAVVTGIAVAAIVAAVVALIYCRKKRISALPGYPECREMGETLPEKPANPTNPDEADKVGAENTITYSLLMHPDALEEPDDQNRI
Put plainly: FACS, 10 µg/mL mAb as immune complex with biotin-PD-L1/His and neutravidin on FcγR-expressing HEK293 cells. An excerpt:
(§1) Such bindings are thought to be more relevant under physiological condition, as the binding strength between monomeric γFc and most of the FcγRs is very weak. Human immune system also takes advantage of this mechanism to avoid non-specific activation of FcγRs by monomeric IgG which are present at high levels in serum.

The target of assay [2] is T2, human FcγRIIAH131 expressed on HEK293 cells (human, UniProt P12318 34-317).
T2 construct: whole, on cells
T2 sequence (looked up): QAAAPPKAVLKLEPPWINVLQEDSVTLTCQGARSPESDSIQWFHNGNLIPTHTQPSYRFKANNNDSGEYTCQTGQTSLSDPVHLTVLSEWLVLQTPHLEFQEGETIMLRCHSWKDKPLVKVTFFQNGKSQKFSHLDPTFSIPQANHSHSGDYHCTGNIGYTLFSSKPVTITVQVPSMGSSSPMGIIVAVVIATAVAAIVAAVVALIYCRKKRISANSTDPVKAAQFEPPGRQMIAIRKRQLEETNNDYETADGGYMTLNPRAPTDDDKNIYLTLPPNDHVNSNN
The description is as above.
Text: as §1

Assay [3] deals with T3, human FcγRIIIAF158 expressed on HEK293 cells (human, UniProt P08637 17-254).
T3 construct: whole, on cells; Co-expressed with FcRγ subunit
T3 sequence (P08637 17-254): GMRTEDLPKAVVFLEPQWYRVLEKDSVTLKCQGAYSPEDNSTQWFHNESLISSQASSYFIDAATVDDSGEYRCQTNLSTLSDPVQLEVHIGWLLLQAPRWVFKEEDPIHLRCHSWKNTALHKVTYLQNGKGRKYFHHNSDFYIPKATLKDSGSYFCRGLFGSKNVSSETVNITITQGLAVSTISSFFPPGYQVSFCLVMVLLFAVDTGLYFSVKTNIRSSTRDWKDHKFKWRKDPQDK
The description is as above.
Text: as §1

Assay [4] has as its target T4, human FcγRI expressed on HEK293 cells (human, UniProt P12314 16-374).
T4 construct: whole, on cells; Co-expressed with FcRγ subunit
Described as above.
Text: as §1

In assay [5] the target is T5, human FcγRIIAR131 expressed on HEK293 cells (human, UniProt P12318 34-317).
T5 construct: whole, on cells
T5 sequence (looked up): T2 sequence (looked up) with H134R
The assay is described as above.
Text: as §1

In assay [6] the target is T6, human FcγRIIIAV158 expressed on cells (human, UniProt P08637 17-254).
T6 construct: whole, on cells; Co-expressed with FcRγ subunit; on HEK293 cells in the FACS assays, on NK92MI/CD16V cells in the ADCC assay; also called CD16 (V158 allele)
T6 sequence (P08637 17-254 F176V limits assumed): as the sequence (P08637 17-254) above, with F160V counted along it
The assay is described as above.
Text: as §1

The target in assay [7] is T6, human FcγRIIIAV158 expressed on cells. Put plainly: FACS, monomeric mAb on FcγR-expressing HEK293 cells, goat anti-human IgG F(ab')2-Alexa Fluor 488 detection. As to the method: Bindings of humanized anti-PD-L1 in various IgG1 formats (wt, IgG1mc, IgG1mf, SEQ. NO. 27-29) to FcγRs were also determined by flow cytometry. In brief, a series of stable HEK293 transfectants expressing human FcγRs were established. These stable cell lines expressed FcγRI, FcγRIIAH131, FcγRIIAR131, FcγRIIB, FcγRIIIAF158 or FcγRIIIAV158, respectively. Multi-subunit FcγRs (i.e., FcγRI and FcγRIIIA) were co-expressed with FcRγ subunit.
On the technique in general: A flow cytometer gives signals particle by particle.

Assay [8] has as its target T7, human PD-L1-ECD/His (human, UniProt Q9NZQ7 19-238).
T7 construct: Expressed in 293-F cells; also called PD-L1/His; human PD-L1/His
Nature of the assay: ELISA on coated human PD-L1/His, anti-human Fc-HRP; x-axis printed as 'Ag concentration', mAb concentration according to paragraph 44 [A]. As to the method:
(§2) The monkey PD-L1/His and murine PD-L1/His were expressed and purified in a similar way to the human PD-L1/His as described earlier. […] The synthesized full length mAb was named as Y1-IgG1mc. The ELISA assay was performed essentially in the same way as described in the previous section. Briefly, 200 ng of PD-L1 protein was coated on each well of Nunc MaxiSorp ELISA plate (Cat. No. 442404, Nunc, Thermo Fisher). After washing and blocking, indicated concentrations of anti-PD-L1 mAbs were added and incubated at room temperature for 1 hour. After washing, the bound anti-PD-L1 mAbs were detected using a HRP-conjugated goat anti-human Fc antibody (Cat. No. A0170, Sigma).
In general terms: ELISA stands for enzyme-linked immunosorbent assay.

In assay [9] the target is T8, mouse PD-L1/His (mouse (Mus musculus), UniProt Q9EP73 19-239).
T8 construct: extracellular domain; Said to be expressed and purified in a similar way to the human PD-L1/His; also called murine PD-L1/His; murine PD-L1; not shown: His tag
T8 sequence (Q9EP73 19-239): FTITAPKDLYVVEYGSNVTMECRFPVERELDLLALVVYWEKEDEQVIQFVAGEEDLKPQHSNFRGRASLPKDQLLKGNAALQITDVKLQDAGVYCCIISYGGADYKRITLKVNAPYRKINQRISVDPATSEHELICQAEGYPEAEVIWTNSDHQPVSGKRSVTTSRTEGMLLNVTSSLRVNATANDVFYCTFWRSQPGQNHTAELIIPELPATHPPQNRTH
Put plainly: ELISA on coated mouse PD-L1/His, anti-human Fc-HRP [C]. As to the method:
as §2

Assay [10] addresses T9, cynomolgus monkey PD-L1/His (cynomolgus monkey (Macaca fascicularis), UniProt G7PSE7 19-238).
T9 construct: extracellular domain; Said to be expressed and purified in a similar way to the human PD-L1/His (PD-L1-ECD/His); not shown: His tag
Nature of the assay: ELISA on coated cynomolgus monkey PD-L1/His, anti-human Fc-HRP [B]. The protocol: as §2

In general, EC50 (read off the curve) refers to the concentration giving half of the maximal effect.

T4 sequence (P12314 16-374): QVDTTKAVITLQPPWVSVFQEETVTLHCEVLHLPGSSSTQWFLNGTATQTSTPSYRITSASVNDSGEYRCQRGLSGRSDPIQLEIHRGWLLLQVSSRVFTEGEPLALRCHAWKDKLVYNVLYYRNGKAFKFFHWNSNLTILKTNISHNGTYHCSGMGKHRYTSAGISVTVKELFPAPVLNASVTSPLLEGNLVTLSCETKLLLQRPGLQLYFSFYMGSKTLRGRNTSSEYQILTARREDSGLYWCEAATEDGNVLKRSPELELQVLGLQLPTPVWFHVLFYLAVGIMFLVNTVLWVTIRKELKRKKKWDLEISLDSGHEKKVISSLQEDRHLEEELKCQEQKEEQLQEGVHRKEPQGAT
T7 sequence (Q9NZQ7 19-238): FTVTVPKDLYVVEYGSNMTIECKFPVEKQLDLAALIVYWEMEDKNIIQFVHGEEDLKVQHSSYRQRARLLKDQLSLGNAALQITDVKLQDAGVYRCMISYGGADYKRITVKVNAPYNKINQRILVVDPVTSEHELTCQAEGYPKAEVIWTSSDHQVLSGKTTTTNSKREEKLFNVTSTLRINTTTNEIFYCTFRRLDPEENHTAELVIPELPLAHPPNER
T9 sequence (G7PSE7 entry or part of it): as the sequence (Q9NZQ7 19-238) above, with A33T, A34S, S62N, R68Q, Q82R, F173L, T185A, T192I, H215L counted along it

B1: hu333-4A2-IgG1wt (antibody)
heavy: not shown
VL: DIQMTQSPSSLSASVGDRVTITCKASQDVGIVVAWYQQKPGKAPKLLIYWASIRHTGVPSRFSGSGSGTEFTLTISSLQPDDFATYYCQQYSNYPLYTFGQGTKVEIK
notes: light chain constant region (kappa) not tied to an entry for this form
For the molecule B1, the MFI was 539 MFI in [1]; 599 MFI in [2]; 74.2 MFI in [3]; 3260 MFI in [4]; 159 MFI in [5]; 309 MFI in assay [6].

B2: hu333-4B2-IgG1mc (antibody)
heavy: EVQLVESGGGLVQPGGSLRLSCAVSGFSLTSYGVHWVRQAPGKGLEWVAVIWAGGSTNYADSVKGRFTISKDTSKNTVYLQMNSLRAEDTAVYYCAKPYGTSAMDYWGQGTLVTVSSASTKGPSVFPLAPSSKSTSGGTAALGCLVKDYFPEPVTVSWNSGALTSGVHTFPAVLQSSGLYSLSSVVTVPSSSLGTQTYICNVNHKPSNTKVDKKVEPKSCDKTHTCPPCPAPPAAAPSVFLFPPKPKDTLMISRTPEVTCVVVDVSHEDPEVKFNWYVDGVEVHNAKTKPREEQYNSTYRVVSVLTVLHQDWLNGKEYKCKVSNKALAAPIEKTISKAKGQPREPQVYTLPPSRDELTKNQVSLTCLVKGFYPSDIAVEWESNGQPENNYKTTPPVLDSDGSFFLYSKLTVDKSRWQQGNVFSCSVMHEALHNHYTQKSLSLSPGK
light: DIQMTQSPSSLSASVGDRVTITCKASQDVGIVVAWYQQKPGKAPKLLIYWASIRHTGVPSRFSGSGSGTEFTLTISSLQPDDFATYYCQQYSNYPLYTFGQGTKVEIKRTVAAPSVFIFPPSDEQLKSGTASVVCLLNNFYPREAKVQWKVDNALQSGNSQESVTEQDSKDSTYSLSSTLTLSKADYEKHKVYACEVTHQGLSSPVTKSFNRGEC
As for B2, the MFI in [1] came out at 5.03 MFI; in assay [2], 8.09 MFI; in assay [3], 6.81 MFI; in [4], 7.01 MFI; in assay [5], 5.28 MFI; in [6], 4.89 MFI. Moreover, the binding result in assay [7] is “no binding”; in [9], “no binding (tested: 1 µg/ml)”. In addition, the results for the “EC50 (read off the curve)” value in assay [8] and in [10] were roughly 0.03 µg/mL and roughly 0.04 µg/mL, respectively.

B3: hu333-4B2-IgG1mf (antibody)
heavy: B2 heavy with A236G
light: B2 light
For the molecule B3, the MFI in assay [1] came to 5 MFI; in assay [2], 7.27 MFI; in [3] it was 6.76 MFI; in assay [4], 7.11 MFI; in [5] it was 4.92 MFI; in assay [6] it was 4.83 MFI. The binding result in assay [7] is listed as “no binding”; in assay [9], “no binding (tested: 1 µg/ml)”. Moreover, the figures for the “EC50 (read off the curve)” value in assay [8] and in [10] were roughly 0.03 µg/mL and roughly 0.04 µg/mL, respectively.

B4: hu333-4A2-IgG1mc (antibody)
heavy: B2 heavy with A60V, T73N, S74A
light: B2 light
Consider B4, for which the MFI in [1] worked out at 5.05 MFI; in assay [2] it was 7.53 MFI; in [3] it was 6.44 MFI; in assay [4], 7 MFI; in assay [5], 5.38 MFI; in [6], 5.43 MFI. The values for the binding result in assay [7] and in assay [9] were “no binding” and “no binding (tested: 1 µg/ml)”, respectively. Moreover, the “EC50 (read off the curve)” value in [8] is roughly 0.03 µg/mL; in assay [10] it was roughly 0.04 µg/mL.
